What all share (experiment): SEC
Experiment [1] deals with repaired and stabilized HA of H3N2 A/Brisbane/10/2007 (P194L in HA1) (influenza A virus H3N2 A/Brisbane/10/2007).
The target of experiment [2] is repaired and stabilized HA of H3N2 A/Singapore/INFIMH/16/0019/2016 (P194L in HA1) (influenza A virus H3N2 A/Singapore/INFIMH/16/0019/2016).
Experiment [3] deals with HA ectodomain of H1N1 A/California/07/2009 with K51I + E103I (influenza A virus H1N1 A/California/07/2009).

In the case of “repaired and stabilized HA of H3N2 A/Brisbane/10/2007 (P194L in HA1) (domain or fragment)”, the stoichiometry N in experiment [1] came to 3.

For “repaired and stabilized HA of H3N2 A/Singapore/INFIMH/16/0019/2016 (P194L in HA1) (domain or fragment)”, the stoichiometry N in experiment [2] was 3.

As to “HA ectodomain of H1N1 A/California/07/2009 with K51I + E103I (domain or fragment)”, the stoichiometry N in experiment [3] amounted to 3.

Source of the values: paper PMC8833195.
